Earlier results, collected in article PMC9085562.

Key:
[1] = target: H3K9me1 peptide (Homo sapiens) (UniProt P68431)
[2] = target: H3K9me3 peptide (Homo sapiens) (UniProt P68431); assay: fluorescence polarization

Q: With Cbx1 (from UniProt P83916) as the substance, how does the Kd [1] read?
A: 12.5 µM

Q: What about the Kd [2] of the same substance?
A: 3.2 µM
